± gives the uncertainty stated by the source.
Test: self-splicing fitness, log relative to wild type (ln ratio); higher = more splicing; Tetrahymena group I intron in knt gene, E. coli kanamycin selection, DiMSum; sequences stand for … in CUCUCU…GGAGGGAAAAGUUAUCAGGCAUGCACCUGGUAGCUAGUCUUUAAACCAAUAGAUUGCAUCGGUUUAAAAGGCAAGACCGUCAAAUUGCGGGAAAGGGGUCAACAGCCGUUCAGUACCAAGUCUCAGGGGAAACUUUGAGAUGGCCUUGCAAAGGGUAUGGUAAUAAGCUGACGGACAUGGUCCUAACCACGCAGCCAAGUCCUAAGUCAACAGAUCUUCUGUUGAUAUGGAUGCAGUUCACAGACUAAAUGUCGGUCGGGGAAGAUGUAUUCUUCUCAUAAGAUAUAGUCGGACCUCUCCUUAAUGGGAGCUAGCGGAUGAAGUGAUGCAACACUGGAGCCGCUGGGAACUAAUUUGUAUGCGAAAGUAUAUUGAUUAGUUUUGGAGUACUCGUGGUCG
Summary of the method: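 Colonies from six replicate transformations of E. coli BL21(DE3) were pooled and amplicon-sequenced on an Illumina HiSeq 2500. The library placed an intron with all eight P1ex-region nucleotides randomised inside the knt kanamycin-resistance gene on pET-22b(+), and cells grew overnight at 37°C or 30°C on LB agar with or without 25 μg/mL kanamycin (plus 100 μg/mL carbenicillin, 50 μM IPTG, 0.2% rhamnose). Fitness is the DiMSum error-weighted combination of wild-type-normalised replicate fold changes, kanamycin versus none.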

| Sequence | self-splicing fitness (ln) (30 °C) | self-splicing fitness (ln) (37 °C) |
| --- | --- | --- |
| CGUCAGCAAUAUUACGUUAG | -0.494 ± 0.065 | -0.365 ± 0.094 |
| CGUCAGCAAUAUUACGUUGU | -3.9 ± 0.23 | -2.12 ± 0.18 |
| CGUGAGCAAUAUUACGAAUC | -2.66 ± 0.2 | -2.34 ± 0.28 |
| CGUGAGCAAUAUUACGAGAU | -3.4 ± 0.26 | -1.57 ± 0.24 |
| CGUGAGCAAUAUUACGAUAA | -4.37 ± 0.39 | -2.68 ± 0.23 |
| CGUGAGCAAUAUUACGCGAC | -2.65 ± 0.35 | -2.21 ± 0.36 |
| CGUGAGCAAUAUUACGCGCC | -2.85 ± 0.36 | -1.95 ± 0.28 |
| CGUGAGCAAUAUUACGCGCU |  | -1.8 ± 0.36 |
| CGUGAGCAAUAUUACGCGGU | -3.83 ± 0.34 | -2.06 ± 0.32 |
| CGUGAGCAAUAUUACGCUAC |  | -0.816 ± 0.38 |
| CGUGAGCAAUAUUACGCUAG | -2.9 ± 0.12 | -1.47 ± 0.21 |
| CGUGAGCAAUAUUACGCUGC | -2.64 ± 0.32 |  |
| CGUGAGCAAUAUUACGGACU | -1.09 ± 0.14 | -0.345 ± 0.23 |
| CGUGAGCAAUAUUACGGAUC | -4.24 ± 0.33 | -1.88 ± 0.25 |
| CGUGAGCAAUAUUACGUAAU | -3.22 ± 0.26 | -2.19 ± 0.25 |
| CGUGAGCAAUAUUACGUAUC | -1.84 ± 0.16 | -2.42 ± 0.27 |
| CGUGAGCAAUAUUACGUCUG | -0.656 ± 0.072 | 0.0039 ± 0.094 |
| CGUGAGCAAUAUUACGUGCU | -3.78 ± 0.29 | -2.97 ± 0.34 |
| CGUGAGCAAUAUUACGUUUA | -3.08 ± 0.39 |  |
| CGUUAGCAAUAUUACGAAAC |  | -1.84 ± 0.37 |
| CGUUAGCAAUAUUACGAAAU | -3.82 ± 0.35 | -2.2 ± 0.28 |
| CGUUAGCAAUAUUACGAAUG | -1.92 ± 0.15 | 0.491 ± 0.12 |
| CGUUAGCAAUAUUACGAAUU |  | -2.39 ± 0.33 |
| CGUUAGCAAUAUUACGACCG | -1.13 ± 0.14 | -0.193 ± 0.2 |
| CGUUAGCAAUAUUACGACUA | -1.12 ± 0.16 | 0.415 ± 0.14 |
| CGUUAGCAAUAUUACGACUU | -1.03 ± 0.12 | -0.0418 ± 0.17 |

| Sequence | self-splicing fitness (ln) (30 °C) | self-splicing fitness (ln) (37 °C) |
| --- | --- | --- |
| CGUUAGCAAUAUUACGCCCU | -1.26 ± 0.2 | -0.204 ± 0.19 |
| CGUUAGCAAUAUUACGCGAA | -3.36 ± 0.41 | -3.1 ± 0.43 |
| CGUUAGCAAUAUUACGCUCG | -1.41 ± 0.14 | -1.38 ± 0.18 |
| CGUUAGCAAUAUUACGCUUA | -3.67 ± 0.28 | -1.86 ± 0.25 |
| CGUUAGCAAUAUUACGGAAU |  | -2.07 ± 0.36 |
| CGUUAGCAAUAUUACGGAGG | -1.43 ± 0.12 | -1.01 ± 0.11 |
| CGUUAGCAAUAUUACGGCGG | -0.628 ± 0.1 | -0.396 ± 0.12 |
| CGUUAGCAAUAUUACGGGAC | -2.68 ± 0.34 | -3.7 ± 0.39 |
| CGUUAGCAAUAUUACGGUAU | -3.23 ± 0.22 | -2.2 ± 0.22 |
| CGUUAGCAAUAUUACGGUCU | -1.56 ± 0.18 | -1.22 ± 0.16 |
| CGUUAGCAAUAUUACGGUGG | -0.853 ± 0.056 | -0.115 ± 0.079 |
| CGUUAGCAAUAUUACGUAGC | -3.37 ± 0.22 | -2.68 ± 0.25 |
| CGUUAGCAAUAUUACGUCAG | -0.851 ± 0.13 | 0.0149 ± 0.14 |
| CGUUAGCAAUAUUACGUCAU | -2.58 ± 0.21 | -2.85 ± 0.3 |
| CGUUAGCAAUAUUACGUCCG | -0.128 ± 0.18 | -0.407 ± 0.2 |
| CGUUAGCAAUAUUACGUCUU | -4.03 ± 0.26 | -1.29 ± 0.099 |
| CGUUAGCAAUAUUACGUGUC | -4.28 ± 0.37 | -2.18 ± 0.18 |
| CGUUAGCAAUAUUACGUUCA | -0.69 ± 0.078 | -0.192 ± 0.083 |
| CGUUAGCAAUAUUACGUUCG | -1.38 ± 0.091 | -1.02 ± 0.13 |
| CUAAAGCAAUAUUACGAAGC |  | -2.06 ± 0.42 |
| CUAAAGCAAUAUUACGAAUG | 0.281 ± 0.067 | 0.497 ± 0.088 |
| CUAAAGCAAUAUUACGACUU | -3.45 ± 0.2 | -3.47 ± 0.39 |
| CUAAAGCAAUAUUACGCCAC | -2.89 ± 0.49 |  |
| CUAAAGCAAUAUUACGCGCC | -2.84 ± 0.23 | -2.6 ± 0.4 |
| CUAAAGCAAUAUUACGCGCG | 0.227 ± 0.072 | -0.176 ± 0.095 |
